Measurements reported in patent publication US20120003149A1.

Experiments:
[1] = molecular target: human GPR87 (G protein-coupled receptor 87), endogenously expressed in Me180 cells (human); test: flow cytometry, Me180 cells transfected with control siRNA, antibody at 10 µg/mL (no primary antibody: 10.71)
[2] = molecular target: human GPR87 (G protein-coupled receptor 87), endogenously expressed in Me180 cells (human); test: flow cytometry, Me180 cells transfected with siRNA against GPR87 (expression suppressed to 5.9% at the RNA level), antibody at 10 µg/mL (no primary antibody: 10.16)
[3] = molecular target: human GPR87 (G protein-coupled receptor 87), endogenously expressed in Me180 cells (human); test: flow cytometry, Me180 cells transfected with siRNA against GPR87 (expression suppressed to 5.9% at the RNA level), antibody at 0.1 µg/mL (no primary antibody: 10.16)
[4] = molecular target: full-length human GPR87 with an N-terminal FLAG tag, stably expressed on CHO cells (human); test: flow cytometry, hGPR87 stable expression CHO cell line, antibody at 0.01 µg/mL (no primary antibody: 18.36)
Chain of full-length human GPR87 with an N-terminal FLAG tag, stably expressed on CHO cells (human) (chain, as listed by the source): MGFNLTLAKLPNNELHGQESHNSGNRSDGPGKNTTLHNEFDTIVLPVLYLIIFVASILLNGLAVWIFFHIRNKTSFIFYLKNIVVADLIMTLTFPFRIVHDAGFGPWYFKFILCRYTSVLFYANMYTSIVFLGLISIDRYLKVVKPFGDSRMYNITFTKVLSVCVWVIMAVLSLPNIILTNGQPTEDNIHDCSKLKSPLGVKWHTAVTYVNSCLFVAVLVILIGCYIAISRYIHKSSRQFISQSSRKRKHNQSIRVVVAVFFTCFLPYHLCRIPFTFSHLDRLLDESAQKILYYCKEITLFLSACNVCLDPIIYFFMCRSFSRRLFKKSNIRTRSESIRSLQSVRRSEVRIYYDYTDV

[5] = molecular target: full-length human GPR87 with an N-terminal FLAG tag, stably expressed on CHO cells (human); test: flow cytometry, hGPR87 stable expression CHO cell line, antibody at 0.1 µg/mL (no primary antibody: 18.36)
[6] = molecular target: full-length human GPR87 with an N-terminal FLAG tag, stably expressed on CHO cells (human); test: flow cytometry, hGPR87 stable expression CHO cell line, antibody at 1 µg/mL (no primary antibody: 18.36)
[7] = molecular target: human GPR87 (G protein-coupled receptor 87), endogenously expressed in Me180 cells (human); test: flow cytometry, Me180 cells transfected with control siRNA, antibody at 1 µg/mL (no primary antibody: 10.71)
[8] = molecular target: full-length human GPR87 with an N-terminal FLAG tag, stably expressed on CHO cells (human); test: flow cytometry, hGPR87 stable expression CHO cell line, antibody at 10 µg/mL (no primary antibody: 18.36)
[9] = molecular target: human GPR87 (G protein-coupled receptor 87), endogenously expressed in Me180 cells (human); test: flow cytometry, Me180 cells transfected with siRNA against GPR87 (expression suppressed to 5.9% at the RNA level), antibody at 1 µg/mL (no primary antibody: 10.16)
[10] = molecular target: human GPR87 (G protein-coupled receptor 87), endogenously expressed in Me180 cells (human); test: flow cytometry, Me180 cells transfected with control siRNA, antibody at 0.1 µg/mL (no primary antibody: 10.71)

Chain of human GPR87 (G protein-coupled receptor 87), endogenously expressed in Me180 cells (human) (chain, as listed by the source): as above

geometric mean of the fluorescence intensity [1]	geometric mean of the fluorescence intensity [2]	geometric mean of the fluorescence intensity [3]	geometric mean of the fluorescence intensity [4]	geometric mean of the fluorescence intensity [5]	geometric mean of the fluorescence intensity [6]	geometric mean of the fluorescence intensity [7]	geometric mean of the fluorescence intensity [8]	geometric mean of the fluorescence intensity [9]	geometric mean of the fluorescence intensity [10]	Binder
63.5	20.6	10.3	28.9	110	578	24.6	1240	12.9	12.9	C0804 antibody (antibody, V domains shown) VH: QIQLVQSGPELKKPGETVKISCKVSGYTFTDYSMHWVKQAPGKGLKWMAWINTETGKPTYADDFKGRFAFSLEASASTAYLQINNLKNEDTATYFCASLDYWGQGTTLTVSS VL: DVLMTQTPLSLPVSLGDQASISCRSSQNVVHSSGNTYLEWFLQKPGQSPKLLIYKVSTRFSGVPDRFSGSGSGTDFTLKISRVEAEDLGVYYCFQGSHVPYTFGGGTKLEIKR
60.5	22.4	10.1	26.9	91.6	496	28.8	1290	13.6	13.3	C0815 antibody (antibody, V domains shown) VH: QIQLVQSGPELKNPGETVKISCKVSGYTFTDYSMHWVKQAPGKGLKWMAWINTETGKPTYADDFKGRFAFSLETSASTAYLQINTLKNEDTATYFCASLDYWGQGTTLTVSS VL: DVLMTQTPLSLPVSLGDQASISCRSSQNVVHSSGNTYLEWFLQKPGQSPKLLIYKVSNRFSGVPDRFSGSGSGTDFTLKISRVEAEDLGVYYCFQGSHVPYTFGGGTKLEIKR
